Measurements reported in patent US20250000976A1 (NATIONAL RESEARCH COUNCIL OF CANADA, published 2025).
Numbering of substitutions follows the chain as printed.

T1: hBCMA-ECD-FC5VHH (human, UniProt Q02223 1-54, biotinylated in vivo ; biotinylated in vivo on the tag of the carrier part, which is not in the letters)
T1 construct: Made in HEK-293 cells, monomeric SEC fraction; The methods say about 500 RU captured on an SA chip; the results say immobilised on a CM5 chip; also called hBCMA-FC5; human BCMA-ECD; not shown: FC5 VHH carrier, any linker, and the His and biotinylation tags
T1 sequence: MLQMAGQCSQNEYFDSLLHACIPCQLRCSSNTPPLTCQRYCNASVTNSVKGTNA

B1: hBCMA-VcMRo1(V1/V6) (VHH)
VHH: EVQLQQSGGGLVQAGESLTISCAVFGDPITVATMGWYRQAPGKLRELVAAISSAGSTFYRDSVRGRFTVSRDNAKSTMYLQMDRLKVEDTAVYSCNGAPWGDAPVKVWTWGEGTQVTVSS
modifications: single biotin on the C-terminal AviTag
notes: not shown: C-terminal His tag and AviTag biotinylation signal from pMRO vector
B2: hBCMA-2F10 (VHH)
VHH: QVQLVESGGGLVQSGNSLRLSCSISGHTTKNFVMAWFRRAPGKERAIVATRVWSGGSPWYSESAKGRFTISIDDARNTAYLQMNNLKPEDTAVYYCAATKDIMSRGYVYWGLGTQVTVSS
modifications: single biotin on the C-terminal AviTag
notes: as for B1
B3: hBCMA-H1 (VHH)
VHH: QVQLVESGGGLVQPGGSLRLSCAASGSGFGTHVMGWYRQAPGKPRELVAAISSAGSTFYRDSVKGRFTVSRDNAKNTMYLQMDRLKPEDTAVYYCNGAPWADEPVKVWNWGQGTQVTVSS
modifications: single biotin on the C-terminal AviTag
notes: as for B1
B4: hBCMA-D2 (VHH)
VHH: B3 VHH with G28I, H32Y, V33N, P44Q, S56N, P87Y, Y94N, A101G, E103A, P104L
modifications: single biotin on the C-terminal AviTag
notes: as for B1
B5: hBCMA-B5 (VHH)
VHH: QVKLEESGGGLVQPGGSLRLSCAASGSIFGTYNMGWYRQAPGKQRELVAAISSAGNTFYRDSVKGRFTVSRDNAKNTVYLQMDRLKYEDTAVYNCNGAPWADAEVKVYNWGQGTQVTVSS
modifications: single biotin on the C-terminal AviTag
notes: as for B1
B6: hBCMA-F2 (VHH)
VHH: QVKLEESGGGLVKPGGSLRLSCGASGNSFGAYNMGWYRQAPGKQRELVAAISSTGNTFYRDSVRGRFTVSRDNAKSTMSLQMERLKPEDTAVYLCNGAPWGDDPVKVWSWGQGTQVTVSS
modifications: single biotin on the C-terminal AviTag
notes: as for B1
B7: hBCMA-3F2 (VHH)
VHH: QVQLVESGGRLVQTGDSLRLTCEISGHTSNQFVLAWFRRPPGKEREVVATRFWGGGSPYYSDSVRGRFAIAIDDAKNTAYLQMSSLKPEDTAVYYCAATKDILSRGYDYWGQGTQVTVSS
modifications: single biotin on the C-terminal AviTag
notes: as for B1
B8: hBCMA-2C3 (VHH)
VHH: QVKLEESGGGLVQTGDSLRLACTISGRATDHFVMAWFRRAPGKEREYVATRVWSGGSPYYLDSAKGRFAIAIDNAKNTAYLQMNNLKPEDTAVYYCAATKDIMSRSYDYWGLGTQVTVSS
modifications: single biotin on the C-terminal AviTag
notes: Variant of E7 with the same CDRs; also called VHH #2; not shown: C-terminal His tag and AviTag biotinylation signal from pMRO vector

The binders below were run against T1, hBCMA-ECD-FC5VHH (assay: SPR (Biacore T200), VHH 20-500 nM over BCMA-ECD surface, 25 C).
Method: For surface Plasmon resonance, 15 selected VHHs were passed though size exclusion columns, Superdex 75 (GE Healthcare), respectively, in 10 mM HEPES, pH 7.4, containing 150 mM NaCl, 3 mM EDTA, monomeric sdAb fractions were collected and protein concentrations were determined by measuring absorbance at 280 nm (A280). Analysis were performed with Biacore T200 instrument (GE Healthcare). All measurements were carried out at 25° C. in 10 mM HEPES, pH 7.4, containing 150 mM NaCl, 3 mM EDTA and 0.005% surfactant P20 (GE Healthcare). Approximately 500 RUs of the recombinant monomeric BCMA-ECD (obtained after SEC purification of the BCMA-ECD-FC5VHH) were captured on SA sensor chip (GE Healthcare) at a flow rate of 5 uL/min. Various concentration of the monomeric VHHs (20-500 nM) were injected over BCMA-ECD surface, respectively using an SA surface as a reference at a flow rate of 40 μL/min. Surfaces were generated by washing with running buffer. Data were analysed with BIAevaluation 4.1 software.
The monomeric fraction of all 15 VHHs were used for SPR experiment where the human BCMA-ECD or mouse BCMA was immobilized onto the CM5 dextran chip and various VHH concentration (20-500 nM) were passed over the sensor chip.

Row | Kd | koff | kon | Binder
1 | 0.303 nM | 0.000262 s⁻¹ | 867000 M⁻¹ s⁻¹ | B1
2 | 0.216 nM | 0.00091 s⁻¹ | 4.22e+06 M⁻¹ s⁻¹ | B2
3 | 0.152 nM | 0.000462 s⁻¹ | 3.05e+06 M⁻¹ s⁻¹ | B3
4 | 0.403 nM | 0.000978 s⁻¹ | 2.42e+06 M⁻¹ s⁻¹ | B4
5 | 0.22 nM | 0.00237 s⁻¹ | 1.08e+07 M⁻¹ s⁻¹ | B5
6 | 0.0683 nM | 0.000349 s⁻¹ | 5.11e+06 M⁻¹ s⁻¹ | B6
7 | 0.631 nM | 0.00253 s⁻¹ | 4.01e+06 M⁻¹ s⁻¹ | B7

The binders below were run against T1, hBCMA-ECD-FC5VHH (assay: SPR).

Row | binding result | Binder
8 | binds | B8
